In patent US8779109B2, “Growth hormones with prolonged in-vivo efficacy” (Novo Nordisk Health Care AG, priority 2010, dated 2014):
Where two headings read alike, the source gives them in different places.

Experiments:
[1] = Pharmacokinetics in Sprague Dawley rats after i.v. and s.c. single dose
Protocol: (§4) The pharmacokinetic of the compounds of the examples is investigated in male Sprague Dawley rats after intravenous (i.v.) and subcutaneous (s.c.) single dose administration.
(§5) Test compounds are diluted to a final concentration of 1 mg/mL in a dilution buffer consisting of: Glycine 20 mg/mL, mannitol 2 mg/mL, NaHCO3 2.5 mg/mL, pH adjusted to 8.2.
(§6) The test compounds are studied in male Sprague Dawley rats weighing 250 g. The test compounds are administered as a single injection either i.v. in the tail vein or s.c. in the neck with a 25 G needle at a dose of 60 nmol/kg body weight.
(§7) At each sampling time 0.25 ml blood is drawn from the tail vein using a 25 G needle. The blood is sampled into a EDTA coated test tube and stored on ice until centrifugation at 1200×G for 10 min at 4° C. Plasma is transferred to a Micronic tube and stored at −20° C. until analysis.
(§8) A non-compartmental pharmacokinetic analysis is performed on mean concentration-time profiles of each test compound using WinNonlin Professional (Pharsight Inc., Mountain View, Calif., USA). The pharmacokinetic parameter estimates of terminal half-life (t1/2) and mean residence time (MRT) are calculated.

chymotrypsin = biological target: T1, chymotrypsin (Bos taurus, UniProt P00766); assay: Protease stability, incubation with chymotrypsin; format: in vitro ADME; details: incubation for 4 hours with chymotrypsin
T1 construct: purchased Roche
Source text: (§1) The compound of interest is digested by a relevant protease (Trypsin, Chymotrypsin, Pepsin, Elastase, Factor VIIa, Factor Xa, Proteinase K, Carboxy peptidase, DPPIV, Neutral Endopeptidase, Granzyme B, Proline-endopeptidase, Staphylococcal peptidase I, Thermolysin, Thrombin, Arg-C proteinase, Asp-N endopeptidase, Caspase 1-10, Clostripain, Enterokinase, Glutamyl endopeptidase, Granzyme B, LysC, LysN, Proline-endopeptidase and Staphylococcal peptidase I or tissue extracts.) in an appropriate buffer (e.g. PBS or ammonium bicarbonate) at 37° C. for up till 24 hrs. Proteolytic degradation is assessed by a HPLC assay.
(§2) 100 μL of test compound solution at 1 mg/mL in ammonium bicarbonate buffer is degraded by enzyme for up till 24 hrs at 37° C. […] These diluted samples are analysed by reversed phase HPLC to estimate the degree of proteolytic digestion.
(§3) 10 μL of the above solution is injected on a reversed phase Vydac C4 2×150 mm column eluted with a linear gradient from 0.1% TFA in water to 100% acetonitrile containing 0.1% TFA over a period of 30 min at a flow rate of 0.2 ml/min. […] Percentage (%) intact compound at time point t=T is calculated from the peak area at time point t=T (AT) and the peak area at t=0 (A0) as (AT/A0)×100%. […] Half life (T1/2) is calculated as one phase decay also by GraphPad Prism software. […]

elastase = biological target: T2, elastase (Sus scrofa, UniProt P00772); assay: Protease stability, incubation with elastase; format: in vitro ADME, porcine; details: incubation for 4 hours with elastase
T2 construct: purchased Sigma; host or cells: porcine pancreas
T2 sequence (P00772 27-266): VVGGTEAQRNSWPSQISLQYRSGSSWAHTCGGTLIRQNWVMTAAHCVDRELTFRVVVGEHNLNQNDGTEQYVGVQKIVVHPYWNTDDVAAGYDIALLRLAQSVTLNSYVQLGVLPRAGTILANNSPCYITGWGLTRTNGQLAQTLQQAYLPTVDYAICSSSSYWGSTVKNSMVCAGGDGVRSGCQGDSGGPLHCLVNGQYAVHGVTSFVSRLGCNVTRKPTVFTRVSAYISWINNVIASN
Source text: as §1, §2, §3

[2] = biological target: T3, human growth hormone receptor (BAF-3 GHR cells) (Homo sapiens, UniProt P10912); assay: BAF-3 GHR assay to determine growth hormone activity; format: cell-based, mouse; details: Table 5; relative to hGH = 1.0 (def)
T3 construct: expressed in transfected cells; host or cells: BAF-3 (murine pro-B lymphoid cell line)
T3 sequence (P10912 19-638): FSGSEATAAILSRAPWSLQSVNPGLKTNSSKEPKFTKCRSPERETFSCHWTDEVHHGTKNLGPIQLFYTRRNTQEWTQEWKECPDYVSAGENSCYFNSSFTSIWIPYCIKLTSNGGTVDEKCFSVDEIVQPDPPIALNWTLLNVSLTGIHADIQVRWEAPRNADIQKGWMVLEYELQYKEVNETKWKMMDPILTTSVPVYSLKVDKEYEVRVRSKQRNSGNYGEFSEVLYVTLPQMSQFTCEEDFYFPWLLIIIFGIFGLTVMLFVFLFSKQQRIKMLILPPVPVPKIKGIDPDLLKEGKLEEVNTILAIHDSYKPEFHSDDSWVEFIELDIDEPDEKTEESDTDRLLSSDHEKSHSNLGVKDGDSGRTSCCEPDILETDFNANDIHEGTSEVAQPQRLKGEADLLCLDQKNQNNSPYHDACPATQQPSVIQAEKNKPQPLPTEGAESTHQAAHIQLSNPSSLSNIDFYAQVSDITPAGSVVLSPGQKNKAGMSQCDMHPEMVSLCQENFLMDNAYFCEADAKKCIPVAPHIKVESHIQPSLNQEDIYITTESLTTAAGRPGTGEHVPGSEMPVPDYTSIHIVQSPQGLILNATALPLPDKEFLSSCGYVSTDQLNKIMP
Protocol: This clone can be used to evaluate the effect of different growth hormone samples on the survival of the BAF-3 GHR.
The BAF-3 GHR cells are grown in starvation medium (culture medium without growth hormone) for 24 hrs at 37° C., 5% CO2.
The cells are washed and re-suspended in starvation medium and seeded in plates. 10 μL of growth hormone compound or human growth hormone in different concentrations or control is added to the cells, and the plates are incubated for 68 hrs at 37° C., 5% CO2.
AlamarBlue® is added to each well and the cells are then incubated for another 4 hrs. The AlamarBlue® is a redox indicator, and is reduced by reactions innate to cellular metabolism and, therefore, provides an indirect measure of viable cell number.
Finally, the metabolic activity of the cells is measure in a fluorescence plate reader. The absorbance in the samples is expressed in % of cells not stimulated with growth hormone compound or control and from the concentration-response curves the activity (amount of a compound that stimulates the cells with 50%) can be calculated.

[3] = in vivo, iv
Protocol: as §4, §5, §6, §7, §8

plasma IGF-1 = assay: In vivo dose-response study in hypophysectomised Sprague Dawley rats (plasma IGF-1); details: Table 5
Protocol: The in vivo dose-response relationship is studied in hypophysectomised male Sprague Dawley rats. The hypophysectomised rat is a well known and recognised animal model of growth hormone deficiency, where no production of growth hormone occurs after the surgical removal of the pituitary gland. This also leads to low circulating levels of insulin-like growth factor-1 (IGF-1) another important clinical feature of growth hormone deficiency in humans.
The hypophysectomy is performed on 4 week old male rats weighing 90-100 g. The animals entering the study 3-4 weeks after the surgery weighing 100-110 g. Animals with a body weight gain of more than 10% during the 3-4 weeks after surgery are not allowed to enter the study.
Dose response studies are performed using five dose levels of compound 45.4 from 1-150 nmol/rat.

Substance	T1/2 (i.v. Rat) ([1]; Table 4) [h]	T1/2 (i.v. Rat) ([1]; Table 5) [h]	Chymotrypsin (% intact GH compound) (chymotrypsin) [%]	Elastase (% intact GH compound) (elastase) [%]	In vitro potency [2]	T1/2 (i.v. Rat) [3] [h]	MRT ([3]; rat, 60 nmol/kg) [h]	T1/2 ([3]; rat, 60 nmol/kg) [h]	Duration of IGF-1 increase (plasma IGF-1) [h]
hGH: wild-type human growth hormone, 191 amino acid residue protein (SEQ ID NO: 1)	0.23	0.23	40	25					
2-(C20diacid-Trx-γGlu-OEG-OEG-δLys)-carbonylmethylene-S^101-hGH[L101C] [Compound 44.1]					4.7	5.6	7.2	5.6	>48
